Source: the supplement of paper PMC10567573

B1: KLHL12 (parent)
chain: LDYTADEDGVWYSVAPMNVRRGLA

Variants of: B1
Assay: protein stability index of a GFP-peptide fusion (GPS, HEK-293T) (PSI 1-6); higher = more stable
Conditions: c terminus: a fixed tail appended
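Note: lentivirally expressed fusions sorted by FACS into six bins by GFP to DsRed ratio, PSI derived from sequencing read proportions per bin multiplied by bin number.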

Which protein stability index does the source give for D2Y here?
Its protein stability index is 2.43.

With D6K as the variant, how does the protein stability index read?
The protein stability index was 2.44.

Which protein stability index does the source give for D6C here?
The protein stability index was 2.61.

Which protein stability index does the source give for D6Q here?
The protein stability index was 1.7.

With D6Y as the variant, how does the protein stability index read?
Its protein stability index is 1.51.

With D6S as the variant, how does the protein stability index read?
Its protein stability index is 1.91.

For D6L, which protein stability index is on record?
The protein stability index was 2.08.

With D6G as the variant, how does the protein stability index read?
Its protein stability index is 2.36.

With D6I as the variant, how does the protein stability index read?
Its protein stability index is 1.4.

Which protein stability index does the source give for D6V here?
The protein stability index was 1.99.

With D6F as the variant, how does the protein stability index read?
The protein stability index was 2.98.

With D6E as the variant, how does the protein stability index read?
The protein stability index was 2.16.

Which protein stability index does the source give for D6M here?
Its protein stability index is 2.18.

Which protein stability index does the source give for D6P here?
The protein stability index was 2.46.

With D6A as the variant, how does the protein stability index read?
The protein stability index was 1.93.

For D6W, which protein stability index is on record?
The protein stability index was 2.71.

For D6N, which protein stability index is on record?
Its protein stability index is 1.27.

Which protein stability index does the source give for D6R here?
The protein stability index was 2.47.

Which protein stability index does the source give for D6T here?
The protein stability index was 1.91.

For D6H, which protein stability index is on record?
The protein stability index was 1.85.

With D8W as the variant, how does the protein stability index read?
The protein stability index was 2.1.

Which protein stability index does the source give for D8F here?
Its protein stability index is 1.21.

Which protein stability index does the source give for D8M here?
The protein stability index was 1.93.

For D8V, which protein stability index is on record?
The protein stability index was 1.6.

Which protein stability index does the source give for D8Q here?
Its protein stability index is 2.49.

For D8H, which protein stability index is on record?
The protein stability index was 1.82.

Which protein stability index does the source give for D8P here?
Its protein stability index is 2.26.

Which protein stability index does the source give for D8G here?
Its protein stability index is 1.74.

Which protein stability index does the source give for D8K here?
Its protein stability index is 2.24.

Which protein stability index does the source give for D8L here?
Its protein stability index is 1.73.

Which protein stability index does the source give for D8E here?
The protein stability index was 2.79.

Which protein stability index does the source give for D8Y here?
Its protein stability index is 2.23.

With D8R as the variant, how does the protein stability index read?
Its protein stability index is 1.56.

For D8N, which protein stability index is on record?
The protein stability index was 1.42.

For D8C, which protein stability index is on record?
The protein stability index was 2.81.

For D8T, which protein stability index is on record?
Its protein stability index is 1.48.

Which protein stability index does the source give for D8S here?
The protein stability index was 2.69.

Which protein stability index does the source give for D8I here?
The protein stability index was 1.96.

Which protein stability index does the source give for D8A here?
The protein stability index was 1.67.

For V10N, which protein stability index is on record?
Its protein stability index is 3.06.

With V10E as the variant, how does the protein stability index read?
Its protein stability index is 3.37.

Which protein stability index does the source give for V10L here?
Its protein stability index is 3.09.

Which protein stability index does the source give for V10R here?
The protein stability index was 2.7.

Which protein stability index does the source give for V10P here?
Its protein stability index is 2.47.

With V10G as the variant, how does the protein stability index read?
Its protein stability index is 3.38.

With V10S as the variant, how does the protein stability index read?
Its protein stability index is 2.2.

With V10M as the variant, how does the protein stability index read?
Its protein stability index is 2.32.

Which protein stability index does the source give for V10W here?
The protein stability index was 1.63.

For V10Q, which protein stability index is on record?
The protein stability index was 2.99.

For V10A, which protein stability index is on record?
The protein stability index was 3.22.

Which protein stability index does the source give for V10T here?
The protein stability index was 2.82.

Which protein stability index does the source give for V10Y here?
The protein stability index was 2.44.

With V10H as the variant, how does the protein stability index read?
The protein stability index was 2.44.

Which protein stability index does the source give for V10K here?
The protein stability index was 3.18.

For V10I, which protein stability index is on record?
The protein stability index was 1.84.

For V10F, which protein stability index is on record?
Its protein stability index is 1.86.

With V10C as the variant, how does the protein stability index read?
The protein stability index was 2.44.

Which protein stability index does the source give for V10D here?
Its protein stability index is 3.36.

For T4A, which protein stability index is on record?
The protein stability index was 2.24.

Which protein stability index does the source give for T4C here?
The protein stability index was 1.98.

With T4M as the variant, how does the protein stability index read?
The protein stability index was 2.48.

With T4S as the variant, how does the protein stability index read?
Its protein stability index is 2.81.

With T4I as the variant, how does the protein stability index read?
The protein stability index was 2.12.

Which protein stability index does the source give for T4Q here?
Its protein stability index is 2.45.

With T4R as the variant, how does the protein stability index read?
The protein stability index was 1.51.

With T4Y as the variant, how does the protein stability index read?
The protein stability index was 2.57.

For T4W, which protein stability index is on record?
Its protein stability index is 1.74.

For T4H, which protein stability index is on record?
The protein stability index was 1.77.

For T4L, which protein stability index is on record?
Its protein stability index is 4.91.

Which protein stability index does the source give for T4F here?
Its protein stability index is 1.7.

Which protein stability index does the source give for T4V here?
The protein stability index was 1.98.

With T4K as the variant, how does the protein stability index read?
The protein stability index was 2.57.

Which protein stability index does the source give for T4E here?
Its protein stability index is 2.69.

With T4P as the variant, how does the protein stability index read?
Its protein stability index is 3.09.

For T4G, which protein stability index is on record?
Its protein stability index is 2.1.

For T4D, which protein stability index is on record?
Its protein stability index is 2.41.

For T4N, which protein stability index is on record?
Its protein stability index is 2.24.

Which protein stability index does the source give for W11P here?
The protein stability index was 3.56.

With W11D as the variant, how does the protein stability index read?
Its protein stability index is 4.35.

With W11M as the variant, how does the protein stability index read?
The protein stability index was 2.72.

Which protein stability index does the source give for W11C here?
The protein stability index was 3.05.

For W11L, which protein stability index is on record?
The protein stability index was 3.21.

For W11Q, which protein stability index is on record?
Its protein stability index is 3.38.

Which protein stability index does the source give for W11K here?
The protein stability index was 3.18.

With W11G as the variant, how does the protein stability index read?
Its protein stability index is 3.69.

For W11I, which protein stability index is on record?
The protein stability index was 2.61.

For W11E, which protein stability index is on record?
Its protein stability index is 4.55.

For W11N, which protein stability index is on record?
The protein stability index was 3.97.

With W11F as the variant, how does the protein stability index read?
The protein stability index was 2.85.

Which protein stability index does the source give for W11A here?
Its protein stability index is 3.86.

With W11H as the variant, how does the protein stability index read?
The protein stability index was 3.05.

For A5P, which protein stability index is on record?
The protein stability index was 2.23.

Which protein stability index does the source give for A5S here?
The protein stability index was 1.8.

Which protein stability index does the source give for A5V here?
The protein stability index was 2.02.

For A5D, which protein stability index is on record?
Its protein stability index is 2.76.

Which protein stability index does the source give for A5N here?
Its protein stability index is 2.19.

Which protein stability index does the source give for A5C here?
Its protein stability index is 1.68.

Which protein stability index does the source give for A5E here?
Its protein stability index is 2.14.

For A5I, which protein stability index is on record?
Its protein stability index is 2.99.

Which protein stability index does the source give for A5T here?
The protein stability index was 1.94.

Which protein stability index does the source give for A5G here?
Its protein stability index is 2.08.

Which protein stability index does the source give for A5W here?
The protein stability index was 2.46.

For A5R, which protein stability index is on record?
The protein stability index was 2.15.

For A5Q, which protein stability index is on record?
The protein stability index was 2.06.

Which protein stability index does the source give for A5M here?
The protein stability index was 2.05.

With A5F as the variant, how does the protein stability index read?
Its protein stability index is 1.37.

With A5L as the variant, how does the protein stability index read?
Its protein stability index is 1.29.

For A5Y, which protein stability index is on record?
Its protein stability index is 2.6.

For A5H, which protein stability index is on record?
Its protein stability index is 1.93.

Which protein stability index does the source give for A5K here?
Its protein stability index is 2.35.

Which protein stability index does the source give for G9Q here?
The protein stability index was 2.21.

For G9E, which protein stability index is on record?
Its protein stability index is 2.33.

With G9M as the variant, how does the protein stability index read?
Its protein stability index is 2.26.

With G9D as the variant, how does the protein stability index read?
Its protein stability index is 2.63.

Which protein stability index does the source give for G9L here?
The protein stability index was 1.61.

Which protein stability index does the source give for G9K here?
The protein stability index was 1.75.

Which protein stability index does the source give for G9P here?
The protein stability index was 2.75.

With G9C as the variant, how does the protein stability index read?
Its protein stability index is 1.47.

For G9N, which protein stability index is on record?
Its protein stability index is 2.5.

With G9H as the variant, how does the protein stability index read?
Its protein stability index is 2.2.

Which protein stability index does the source give for G9T here?
The protein stability index was 2.15.

With G9W as the variant, how does the protein stability index read?
Its protein stability index is 1.94.

With G9Y as the variant, how does the protein stability index read?
Its protein stability index is 2.37.

Which protein stability index does the source give for G9A here?
The protein stability index was 2.17.

For G9F, which protein stability index is on record?
Its protein stability index is 1.99.

Which protein stability index does the source give for G9R here?
Its protein stability index is 1.75.

For G9V, which protein stability index is on record?
The protein stability index was 1.82.

With G9I as the variant, how does the protein stability index read?
The protein stability index was 1.88.

Which protein stability index does the source give for G9S here?
The protein stability index was 2.03.

With E7Y as the variant, how does the protein stability index read?
Its protein stability index is 1.95.

With E7N as the variant, how does the protein stability index read?
The protein stability index was 2.09.

With E7F as the variant, how does the protein stability index read?
The protein stability index was 2.55.

With E7M as the variant, how does the protein stability index read?
The protein stability index was 1.91.

With E7W as the variant, how does the protein stability index read?
Its protein stability index is 2.19.

For E7P, which protein stability index is on record?
The protein stability index was 2.02.

For E7C, which protein stability index is on record?
Its protein stability index is 1.65.

With E7H as the variant, how does the protein stability index read?
Its protein stability index is 1.89.

For E7V, which protein stability index is on record?
The protein stability index was 1.44.

With E7K as the variant, how does the protein stability index read?
Its protein stability index is 2.01.

For E7L, which protein stability index is on record?
The protein stability index was 2.79.

For E7R, which protein stability index is on record?
Its protein stability index is 2.77.

With E7I as the variant, how does the protein stability index read?
Its protein stability index is 2.43.

Which protein stability index does the source give for E7G here?
The protein stability index was 1.7.

With E7D as the variant, how does the protein stability index read?
Its protein stability index is 1.46.

Which protein stability index does the source give for E7S here?
The protein stability index was 1.8.

Which protein stability index does the source give for E7A here?
The protein stability index was 1.28.

With E7T as the variant, how does the protein stability index read?
Its protein stability index is 1.64.

Which protein stability index does the source give for E7Q here?
The protein stability index was 2.43.

Which protein stability index does the source give for Y3C here?
The protein stability index was 2.47.

For Y3K, which protein stability index is on record?
The protein stability index was 3.58.

For Y3A, which protein stability index is on record?
Its protein stability index is 3.65.

With Y3G as the variant, how does the protein stability index read?
Its protein stability index is 3.22.

Which protein stability index does the source give for Y3S here?
The protein stability index was 3.61.

Which protein stability index does the source give for Y3R here?
The protein stability index was 2.99.

For Y3N, which protein stability index is on record?
Its protein stability index is 3.78.

For Y3F, which protein stability index is on record?
The protein stability index was 2.29.

With Y3Q as the variant, how does the protein stability index read?
Its protein stability index is 3.69.

For Y3T, which protein stability index is on record?
The protein stability index was 3.01.

For Y3E, which protein stability index is on record?
The protein stability index was 3.6.

Which protein stability index does the source give for Y3M here?
Its protein stability index is 2.33.

For Y3W, which protein stability index is on record?
Its protein stability index is 1.94.

Which protein stability index does the source give for Y3I here?
Its protein stability index is 1.85.

With Y3L as the variant, how does the protein stability index read?
Its protein stability index is 2.22.

For Y3P, which protein stability index is on record?
The protein stability index was 3.6.

Which protein stability index does the source give for Y3V here?
The protein stability index was 1.78.

With Y3H as the variant, how does the protein stability index read?
The protein stability index was 3.43.

With Y3D as the variant, how does the protein stability index read?
Its protein stability index is 3.35.
